Measured values: patent EP4714976A1 (Sunshine Lake Pharma Co., Ltd., dated 2026)
Numbering of substitutions follows the chain as printed.

B1: FR21 (antibody, human IgG1, kappa, V domains shown)
VH: QVQLVQSGAEVKKPGSSVKVSCKASGYIFTTYNVHWVRQAPGQGLEWIGSIYPDNGDTSYNQNFKGRATITADKSTSTAYMELSSLRSEDTAVYYCARGDFAYWGQGTLVTVSS
VL: DIQMTQSPSSLSASVGDRVTITCKASQGVSNDVAWYQQKPGKAPKLLIYSASYRYTGVPSRFSGSGSGTDFTFTISSLQPEDIATYYCQQHSTTPYTFGQGTKLEIKR
notes: also called positive control antibody FR21; positive monoclonal antibody FR21
B2: 3C7-VH2-VL2 (antibody, human IgG1, kappa, V domains shown)
VH: QVQLVQSGAEVKKPGASVKVSCKASGYIFRNYYIHWVRQAPGQGLEWMGAIYPDNGDTSYNQRFKVRATLTADTSTSTVYMELSSLRSEDTAVYYCARAFTYWGQGTTVTVSS
VL: DIQMTQSPSSLSASVGDRVTITCGASENIYGALNWYQRKPGKAPKLLIYGATNLADGVPSRFSGSGSGTDYTLTISSLQPEDFATYYCQNVLSTPYTFGGGTKLEIKR
notes: humanized IgG1
B3: 3H9-VH1-VL1 (antibody, human IgG1, kappa, V domains shown)
VH: QVQLVQSGAEVKKPGASVKVSCKASGYTFTFYNMHWVRQAPGQGLEWIGLIYPDNGDTSYNQKFKGRATLTADTSTSTVYMELSSLRSEDTAVYYCARGGLDYWGQGTTVTVSS
VL: DIQMTQSPSSLSASVGDRVTITCRASENIYSNLAWYQQKPGKSPKLLIYAATNLADGVPSRFSGSGSGTDYTLTISSLQPEDFATYYCQHFWGTPYTFGGGTKVEIKR
notes: humanized IgG1
B4: 3H9-VH0-VL0 (antibody, human IgG1, kappa, V domains shown)
VH: B3 VH with I48M
VL: B3 VL with S43A, Y71F
notes: humanized IgG1
B5: 3H9-VH0-VL1 (antibody, human IgG1, kappa, V domains shown)
VH: B3 VH with I48M
VL: B3 VL
notes: humanized IgG1
B6: 3H9-VH0-VL2 (antibody, human IgG1, kappa)
heavy: not shown
light: DIQMTQSPSSLSASVGDRVTITCRASENIYSNLAWYQQKPGKSPKLLVYAATNLADGVPSRFSGSGSGTDYTLTISSLQPEDFATYYCQHFWGTPYTFGGGTKVEIKRTVAAPSVFIFPPSDEQLKSGTASVVCLLNNFYPREAKVQWKVDNALQSGNSQESVTEQDSKDSTYSLSSTLTLSKADYEKHKVYACEVTHQGLSSPVTKSFNRGEC
notes: humanized IgG1
B7: 3H9-VH0-VL3 (antibody, human IgG1, kappa)
heavy: not shown
light: B6 light with V104L
notes: humanized IgG1
B8: 3H9-VH1-VL0 (antibody, human IgG1, kappa, V domains shown)
VH: B3 VH
VL: B3 VL with S43A, Y71F
notes: humanized IgG1
B9: 3H9-VH1-VL2 (antibody, human IgG1, kappa)
heavy: not shown
light: B6 light
notes: humanized IgG1
B10: 3H9-VH1-VL3 (antibody, human IgG1, kappa)
heavy: not shown
light: B6 light with V104L
notes: humanized IgG1
B11: 3H9-VH2-VL0 (antibody, human IgG1, kappa, V domains shown)
VH: B3 VH with T30S
VL: B3 VL with S43A, Y71F
notes: humanized IgG1
B12: 3H9-VH2-VL1 (antibody, human IgG1, kappa, V domains shown)
VH: B3 VH with T30S
VL: B3 VL
notes: humanized IgG1
B13: 3H9-VH2-VL2 (antibody, human IgG1, kappa)
heavy: not shown
light: B6 light
notes: humanized IgG1
B14: 3H9-VH2-VL3 (antibody, human IgG1, kappa)
heavy: not shown
light: B6 light with V104L
notes: humanized IgG1
B15: 3H9-VH3-VL0 (antibody, human IgG1, kappa, V domains shown)
VH: B3 VH with T30S, R38K
VL: B3 VL with S43A, Y71F
notes: humanized IgG1
B16: 3H9-VH3-VL1 (antibody, human IgG1, kappa, V domains shown)
VH: B3 VH with T30S, R38K
VL: B3 VL
notes: humanized IgG1
B17: 3H9-VH3-VL2 (antibody, human IgG1, kappa)
heavy: not shown
light: B6 light
notes: humanized IgG1
B18: 3H9-VH3-VL3 (antibody, human IgG1, kappa)
heavy: not shown
light: B6 light with V104L
notes: humanized IgG1
B19: 3C7-VH1-VL2 (antibody, human IgG1, kappa, V domains shown)
VH: B2 VH with R30T
VL: B2 VL
notes: humanized IgG1
B20: 3C7-VH0-VL0 (antibody, human IgG1, kappa, V domains shown)
VH: B2 VH with I28T, R30T
VL: B2 VL with G24R, R38Q, Y71F, L104V
notes: humanized IgG1
B21: 3C7-VH0-VL1 (antibody, human IgG1, kappa, V domains shown)
VH: B2 VH with I28T, R30T
VL: B2 VL with R38Q, F83V, L104V
notes: humanized IgG1
B22: 3C7-VH0-VL2 (antibody, human IgG1, kappa, V domains shown)
VH: B2 VH with I28T, R30T
VL: B2 VL
notes: humanized IgG1
B23: 3C7-VH0-VL3 (antibody, human IgG1, kappa, V domains shown)
VH: B2 VH with I28T, R30T
VL: B2 VL with A43S, F83V
notes: humanized IgG1
B24: 3C7-VH1-VL0 (antibody, human IgG1, kappa, V domains shown)
VH: B2 VH with R30T
VL: B2 VL with G24R, R38Q, Y71F, L104V
notes: humanized IgG1
B25: 3C7-VH1-VL1 (antibody, human IgG1, kappa, V domains shown)
VH: B2 VH with R30T
VL: B2 VL with R38Q, F83V, L104V
notes: humanized IgG1
B26: 3C7-VH1-VL3 (antibody, human IgG1, kappa, V domains shown)
VH: B2 VH with R30T
VL: B2 VL with A43S, F83V
notes: humanized IgG1
B27: 3C7-VH2-VL0 (antibody, human IgG1, kappa, V domains shown)
VH: B2 VH
VL: B2 VL with G24R, R38Q, Y71F, L104V
notes: humanized IgG1

Each binder was assayed against T1, human FGFR2b (Kaixia Biotechnology, catalog number FGR-HM1BB) (human, UniProt P21802-3 22-378) (assay: BLI, antibody on AHC2 sensor).
T1 construct: extracellular domain; bought; also called hFGFR2b; human FGFR2b protein
T1 sequence (P21802 other isoform, or with tags, fused parts or gaps): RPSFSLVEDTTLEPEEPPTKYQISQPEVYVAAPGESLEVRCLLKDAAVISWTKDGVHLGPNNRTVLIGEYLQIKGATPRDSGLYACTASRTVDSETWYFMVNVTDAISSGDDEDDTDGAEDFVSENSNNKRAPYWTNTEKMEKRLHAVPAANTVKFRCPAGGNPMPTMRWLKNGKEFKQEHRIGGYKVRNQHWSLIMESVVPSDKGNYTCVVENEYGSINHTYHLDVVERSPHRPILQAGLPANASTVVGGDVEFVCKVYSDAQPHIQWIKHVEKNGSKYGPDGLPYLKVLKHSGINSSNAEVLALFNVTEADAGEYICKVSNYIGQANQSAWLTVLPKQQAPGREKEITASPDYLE

B1 and B2 are within 1.5-fold of each other in Kd: 1.52 nM for the first, 2.03 nM for the second.

B3 and B4 are within 1.5-fold of each other in Kd: 8.5 nM for the first, 6.51 nM for the second.

B5 and B6 are within 1.5-fold of each other in Kd: 3.55 nM for the first, 5.06 nM for the second.

Compared with B7, B8 is 3.6-fold higher in Kd: 5.09 nM for the first, 18.5 nM for the second.

B9 and B10 are within 1.5-fold of each other in Kd: 5.37 nM for the first, 5.05 nM for the second.

Going from B11 to B12, the Kd falls from 2.64 nM to 1.32 nM (2-fold). The second binds more tightly here.

B13 and B14 are within 1.5-fold of each other in Kd: 1.9 nM for the first, 1.37 nM for the second.

Going from B15 to B16, the Kd falls from 3.13 nM to 0.614 nM (5.1-fold).

B17 and B18 are within 1.5-fold of each other in Kd: 0.709 nM for the first, 0.743 nM for the second.

Compared with B19, B20 is 3.8-fold higher in Kd: 2.71 nM for the first, 10.4 nM for the second.

B21 and B22 are within 1.5-fold of each other in Kd: 14 nM for the first, 11.6 nM for the second.

Going from B23 to B24, the Kd falls from 13.6 nM to 1.89 nM (7.2-fold). The second binds more tightly here.

B25 and B26 are within 1.5-fold of each other in Kd: 3.24 nM for the first, 3.04 nM for the second.

In the case of B27, the Kd is reported as 1.63 nM.

First: B1
Second: B2
The koff of the first is 2.1-fold lower: 0.000424 s⁻¹ for the first, 0.000884 s⁻¹ for the second.

B3 and B4 are within 1.5-fold of each other in koff: 0.00241 s⁻¹ for the first, 0.00301 s⁻¹ for the second.

B5 and B6 are within 1.5-fold of each other in koff: 0.00179 s⁻¹ for the first, 0.00186 s⁻¹ for the second.

Compared with B7, B8 is 2.3-fold higher in koff: 0.00186 s⁻¹ for the first, 0.00433 s⁻¹ for the second.

B9 and B10 are within 1.5-fold of each other in koff: 0.00232 s⁻¹ for the first, 0.00254 s⁻¹ for the second.

First: B11
Second: B12
The koff of the first is 1.7-fold higher: 0.00125 s⁻¹ for the first, 0.000752 s⁻¹ for the second.

B13 and B14 are within 1.5-fold of each other in koff: 0.000784 s⁻¹ for the first, 0.000788 s⁻¹ for the second.

First: B15
Second: B16
The koff of the first is 2.9-fold higher: 0.000935 s⁻¹ for the first, 0.000324 s⁻¹ for the second.

B17 and B18 are within 1.5-fold of each other in koff: 0.000373 s⁻¹ for the first, 0.000399 s⁻¹ for the second.

First: B19
Second: B20
The koff of the first is 2.7-fold lower: 0.00115 s⁻¹ for the first, 0.00305 s⁻¹ for the second.

B21 and B22 are within 1.5-fold of each other in koff: 0.00315 s⁻¹ for the first, 0.00313 s⁻¹ for the second.

First: B23
Second: B24
The koff of the first is 3.4-fold higher: 0.00323 s⁻¹ for the first, 0.000955 s⁻¹ for the second.

B25 and B26 are within 1.5-fold of each other in koff: 0.00131 s⁻¹ for the first, 0.00122 s⁻¹ for the second.

With B27 the koff was 0.000829 s⁻¹.

First: B1
Second: B2
The kon of the first is 1.6-fold lower: 279000 M⁻¹ s⁻¹ for the first, 435000 M⁻¹ s⁻¹ for the second.

First: B3
Second: B4
The kon of the first is 1.6-fold lower: 284000 M⁻¹ s⁻¹ for the first, 463000 M⁻¹ s⁻¹ for the second.

B5 and B6 are within 1.5-fold of each other in kon: 505000 M⁻¹ s⁻¹ for the first, 367000 M⁻¹ s⁻¹ for the second.

First: B7
Second: B8
The kon of the first is 1.6-fold higher: 366000 M⁻¹ s⁻¹ for the first, 234000 M⁻¹ s⁻¹ for the second.

B9 and B10 are within 1.5-fold of each other in kon: 432000 M⁻¹ s⁻¹ for the first, 503000 M⁻¹ s⁻¹ for the second.

B11 and B12 are within 1.5-fold of each other in kon: 473000 M⁻¹ s⁻¹ for the first, 570000 M⁻¹ s⁻¹ for the second.

B13 and B14 are within 1.5-fold of each other in kon: 412000 M⁻¹ s⁻¹ for the first, 575000 M⁻¹ s⁻¹ for the second.

Going from B15 to B16, the kon rises from 299000 M⁻¹ s⁻¹ to 527000 M⁻¹ s⁻¹ (1.8-fold).

B17 and B18 are within 1.5-fold of each other in kon: 526000 M⁻¹ s⁻¹ for the first, 536000 M⁻¹ s⁻¹ for the second.

B19 and B20 are within 1.5-fold of each other in kon: 425000 M⁻¹ s⁻¹ for the first, 293000 M⁻¹ s⁻¹ for the second.

B21 and B22 are within 1.5-fold of each other in kon: 224000 M⁻¹ s⁻¹ for the first, 269000 M⁻¹ s⁻¹ for the second.

Compared with B23, B24 is 2.1-fold higher in kon: 238000 M⁻¹ s⁻¹ for the first, 504000 M⁻¹ s⁻¹ for the second.

B25 and B26 are within 1.5-fold of each other in kon: 405000 M⁻¹ s⁻¹ for the first, 403000 M⁻¹ s⁻¹ for the second.

In the case of B27, the kon is reported as 509000 M⁻¹ s⁻¹.

What follows are binders tested against T2, FGFR2b on KATO III cells (human, UniProt P21802-3 22-822) (assay: flow cytometry, KATO III cells).
T2 construct: whole, on cells; also called KATO III cells that overexpress FGFR2b
T2 sequence (P21802 other isoform, or with tags, fused parts or gaps): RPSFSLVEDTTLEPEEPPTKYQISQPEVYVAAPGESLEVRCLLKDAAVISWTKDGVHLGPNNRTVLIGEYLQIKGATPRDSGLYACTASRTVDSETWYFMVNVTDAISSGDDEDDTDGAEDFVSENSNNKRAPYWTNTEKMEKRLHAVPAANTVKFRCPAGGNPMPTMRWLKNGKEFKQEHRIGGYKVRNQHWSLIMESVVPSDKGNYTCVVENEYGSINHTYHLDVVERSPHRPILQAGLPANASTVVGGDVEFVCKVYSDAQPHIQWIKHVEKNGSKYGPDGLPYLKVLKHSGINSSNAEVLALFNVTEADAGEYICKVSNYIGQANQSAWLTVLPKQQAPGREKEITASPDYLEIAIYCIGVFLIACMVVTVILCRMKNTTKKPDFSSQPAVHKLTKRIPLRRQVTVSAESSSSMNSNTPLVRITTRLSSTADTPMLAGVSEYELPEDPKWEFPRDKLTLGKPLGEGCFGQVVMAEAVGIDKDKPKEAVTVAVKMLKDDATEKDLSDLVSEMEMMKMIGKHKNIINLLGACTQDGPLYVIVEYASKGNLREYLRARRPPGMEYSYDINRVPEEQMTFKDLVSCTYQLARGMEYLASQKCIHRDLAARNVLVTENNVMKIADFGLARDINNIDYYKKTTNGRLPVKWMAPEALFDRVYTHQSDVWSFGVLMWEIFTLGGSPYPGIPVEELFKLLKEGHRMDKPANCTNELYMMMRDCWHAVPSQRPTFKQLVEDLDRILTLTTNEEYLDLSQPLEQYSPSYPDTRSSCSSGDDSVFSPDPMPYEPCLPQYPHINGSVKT

B1 and B2 are within 1.5-fold of each other in EC50: 0.586 µg/mL for the first, 0.559 µg/mL for the second.

B3 and B4 are within 1.5-fold of each other in EC50: 0.379 µg/mL for the first, 0.336 µg/mL for the second.

Going from B5 to B6, the EC50 rises from 0.18 µg/mL to 0.357 µg/mL (2-fold).

B7 and B8 are within 1.5-fold of each other in EC50: 0.469 µg/mL for the first, 0.378 µg/mL for the second.

Going from B9 to B10, the EC50 rises from 0.0909 µg/mL to 0.215 µg/mL (2.4-fold).

B11 and B12 are within 1.5-fold of each other in EC50: 0.332 µg/mL for the first, 0.309 µg/mL for the second.

Compared with B13, B14 is 1.6-fold lower in EC50: 0.337 µg/mL for the first, 0.212 µg/mL for the second.

B15 and B16 are within 1.5-fold of each other in EC50: 0.437 µg/mL for the first, 0.357 µg/mL for the second.

Compared with B17, B18 is 2.4-fold higher in EC50: 0.231 µg/mL for the first, 0.554 µg/mL for the second.

Going from B19 to B20, the EC50 falls from 0.601 µg/mL to 0.384 µg/mL (1.6-fold).

B21 and B22 are within 1.5-fold of each other in EC50: 0.64 µg/mL for the first, 0.528 µg/mL for the second.

B23 and B24 are within 1.5-fold of each other in EC50: 0.443 µg/mL for the first, 0.396 µg/mL for the second.

B25 and B26 are within 1.5-fold of each other in EC50: 0.506 µg/mL for the first, 0.565 µg/mL for the second.

With B27 the EC50 was 0.436 µg/mL.
